Among the data in paper PMC5500003, “RNA stores tau reversibly in complex coacervates” are Kd values, retold here.

As usually defined, the Kd is the equilibrium constant for the complex coming apart.

The data set concerns the target tau 4R2N (Homo sapiens, UniProt P10636-8 1-441). The data set is described as follows: EMSA; Hill coefficient 2.6; EMSA: 100 mM sodium acetate pH 7.0, 0.5 mM EDTA, 0.5 mM MgCl2, 0.01% IGEPAL CA-630, RNase inhibitor, 37 C 10 min, TBE 8% gel; ITC: 20 mM ammonium acetate pH 7. As to conditions: protein: recombinant; chain copies: 2; label: 3' biotin kit RNA.

Sequence of tau 4R2N (P10636 other isoform, or with tags, fused parts or gaps): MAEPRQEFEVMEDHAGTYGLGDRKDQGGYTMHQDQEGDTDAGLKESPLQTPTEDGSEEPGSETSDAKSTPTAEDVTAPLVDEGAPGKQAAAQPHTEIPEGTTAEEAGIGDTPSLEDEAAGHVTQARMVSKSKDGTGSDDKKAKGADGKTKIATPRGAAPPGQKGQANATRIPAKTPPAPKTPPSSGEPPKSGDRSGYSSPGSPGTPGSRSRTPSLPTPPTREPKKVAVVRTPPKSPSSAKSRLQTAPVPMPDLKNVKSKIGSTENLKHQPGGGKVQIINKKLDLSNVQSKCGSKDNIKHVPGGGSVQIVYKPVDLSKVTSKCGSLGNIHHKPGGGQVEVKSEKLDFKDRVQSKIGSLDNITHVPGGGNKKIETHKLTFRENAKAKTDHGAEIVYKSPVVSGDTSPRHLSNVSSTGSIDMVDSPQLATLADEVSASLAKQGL

Take CCUGGUUUUUAAGGAGUGUCGCCAGAGUGCCGCGAAUGAAAAA (ssRNA) [RNA43]: the Kd is 832 ± 94 nM.
